How the values were obtained:
[1] = system: tTA (tetracycline transactivator, TetR-VP16); assay: cell_activity; details: 0.5 ug tTA plasmid, no Gal4
Gal4-VP16 = assay: cell_activity; details: 0.5 ug Gal4 plasmid, no tTA
[2] = 0.1 without TF, 16.0 with both TFs at 0.5 ug

Substance | activity ([1]; <0.1 without TF, HEK293FT, synergy with Gal4) [% ON cells] | activity (Gal4-VP16; <0.1 without TF, HEK293FT, synergy with tTA) [% ON cells] | activity [1, 2] [% ON cells] | activity (Gal4-VP16; [2]) [% ON cells]
H1 hybrid promoter pT2U2T2U2 (TetO and UAS, CMV minimal promoter) | 3.1 | 9.2 |  | 
H2 hybrid promoter pT2U3 (TetO and UAS, CMV minimal promoter) |  |  | 0.8 | 4
